Measurements from paper doi:10.1101/2023.12.15.571532 (bioRxiv, 2023).

B1: RelF antitoxin, recombinant His-tagged (natural protein)
chain: MRILPISTIKGKLNEFVDAVSSTQDQITITKNGAPAAVLVGADEWESLQETLYWLAQPGIRESIAEADADIASGRTYGEDEIRAEFGVPRRPH
B2: RelJ antitoxin, recombinant His-tagged (natural protein)
chain: MSISASEARQRLFPLIEQVNTDHQPVRITSRAGDAVLMSADDYDAWQETVYLLRSPENARRLMEAVARDKAGHSAFTKSVDELREMAGGEE
B3: RelB antitoxin, recombinant His-tagged (natural protein)
chain: MAVVPLGEVRNRLSEYVAEVELTHERITITRHGHPAAVLISADDLASIEETLEVLRTPGASEAIREGLADVAAGRFVSNDEIRNRYTAR

Target: the molecule itself
Test: native gel or EMSA

| Protein | stoichiometry N | binding result |
| --- | --- | --- |
| B1 | 4 |  |
| B2 | 4 |  |
| B3 |  | binds |
